Measured values taken from patent US11607466B2, “Tumor and immune cell imaging based on PD-L1 expression” (The Johns Hopkins University, priority 2016, dated 2023).

Experiments:
PD-L1 in MDAMB231 tumors [1] = target: T1, PD-L1 in MDAMB231 tumors (Homo sapiens, UniProt Q9NZQ7); assay: Tumor PD-L1 engagement by PD-L1 mAbs measured with [64Cu]WL12, MDAMB231 xenografts; format: in vivo; settings: mAb 24 h prior, 120 min after tracer injection, ex vivo
T1 construct: MDAMB231 breast cancer cells, which naturally express PD-L1; endogenous in cells; host or cells: MDAMB231 (ATCC); as xenografts in NSG mice for the in vivo units
Procedure: To evaluate the effect of dose on tumor PD-L1 occupancy at the tumor, mice bearing MDAMB231 tumors were injected with escalating doses of AtzMab from 0.009 to 24 mg/kg body weight.

PD-L1 in MDAMB231 tumors [2] = target: T1, PD-L1 in MDAMB231 tumors; assay: as above; format: in vivo; settings: AtzMab 20 mg/kg, AveMab 10 mg/kg, DurMab 10 mg/kg, 24 h prior to tracer
[3] = target: T2, PD-L1 in HCC827, H226, hPD-L1 and MDAMB231 cells (Homo sapiens, UniProt Q9NZQ7); assay: [64Cu]WL12 binding to PD-L1-positive cells in the presence of 60 nM mAbs; format: cell-based; settings: 60 nM mAb vs PBS control
T2 construct: Each of which naturally expresses PD-L1; endogenous in cells; host or cells: HCC827, H226, MDAMB231 (endogenous) and CHO-hPD-L1 (stably transfected)
Procedure: Non-interacting residues are shown in gray. […] Mean fluorescence intensities were determined by flow cytometry.
HCC827 and H226 non-small cell lung cancer (NSCLC) cells also were tested.

[4] = target: T3, PD-L1 in A549-iPDL1 cells (Homo sapiens, UniProt Q9NZQ7); assay: Binding studies in doxycycline-inducible A549-iPDL1 cells; format: cell-based
T3 construct: expressed in transfected cells; host or cells: A549 NSCLC cells, lentiviral pINDUCER20, G418-selected, doxycycline-induced
Source text: To do so, an A549 NSCLC cell line with doxycycline-inducible PD-L1 expression (A549-iPD-L1) was generated. A549 is a Kras G12S lung adenocarcinoma cell line that expresses low PD-L1 at baseline.

[5] = target: T4, PD-L1 in A549-iPDL1 tumors (Homo sapiens, UniProt Q9NZQ7); assay: [64Cu]WL12 PET and biodistribution in A549-iPDL1 and A549 xenografts; format: in vivo; settings: 72 h of doxycycline treatment
T4 construct: expressed in transfected cells; host or cells: A549 NSCLC cells, lentiviral pINDUCER20, G418-selected, doxycycline-induced; as xenografts for the in vivo unit
Source text: To do so, an A549 NSCLC cell line with doxycycline-inducible PD-L1 expression (A549-iPD-L1) was generated. A549 is a Kras G12S lung adenocarcinoma cell line that expresses low PD-L1 at baseline. It has been transduced with PD-L1 in the all-in-one lentivirus pINDUCER20 vector (Meerbrey, et al., 2011), selected with G418, confirmed for PD-L1 induction by flow cytometry (FIG. 37A) and used for in vitro and in vivo studies. Cy5-PD-L1-mAbs binding to doxycycline-treated A549-iPDL1 cells was blocked by WL12 validating the specificity of WL12 (FIG. 37B). […] Accordingly, it is expected that PET will play a key role in quantifying dynamic changes in PD-L1 expression within the standard clinical work flow, providing a novel way to inform therapy decisions.

PD-L1 in MDAMB231 cells = target: T5, PD-L1 in MDAMB231 cells (Homo sapiens, UniProt Q9NZQ7); assay: In vitro binding of [64Cu]WL12 to MDAMB231 and SUM149 cells; format: cell-based; settings: 1 h incubation
T5 construct: MDAMB231 breast cancer cells, which naturally express PD-L1; endogenous in cells; host or cells: MDAMB231 (ATCC)
Procedure: (§1) 1.4.9. […] After incubation, cells were washed three times with cold PBS prior to counting on an automated gamma counter (1282 Compugamma CS, Pharmacia/LKBNuclear, Inc., Gaithersburg, Md.). […] Mean fluorescence intensity values were correlated with % incubated dose (% ID) uptake. All the cell uptake studies were performed in triplicate for each cell line and repeated three times.

hPD-L1 tumors [6] = target: T6, hPD-L1 tumors (Homo sapiens, UniProt Q9NZQ7); assay: PET-CT imaging of [64Cu]WL12 in mice with hPD-L1 and CHO tumors; format: in vivo, mouse
T6 construct: expressed in transfected cells; grown as tumours in NSG mice for the in vivo units
Procedure: 1.4.10. Animal Models: Animal studies were performed according to the protocols approved by the JHU Animal Care and Use Committee (ACUC). Six-to-eight week old, female, non-obese diabetic severe-combined immunodeficient gamma (NSG) mice were obtained from the JHU Immune Compromised Animal Core. Mice were implanted subcutaneously in opposite sides of the upper flanks with 10×10^6 of CHO-PDL1 and CHO cells. […] 1.4.11. […] Mice were maintained at 1% Isofluorane levels during imaging. PET images were acquired in two bed positions at 10 min/bed in an ARGUS small-animal PET/CT scanner (Sedecal, Madrid, Spain). A CT scan (512 projections) was performed at the end of each PET scan for anatomical co-registration. PET data were reconstructed using the two-dimensional ordered subsets-expectation maximization algorithm (2D-OSEM) and corrected for dead time and radioactive decay. The % ID per cc values were calculated based on a calibration factor obtained from a known radioactive quantity. Final data visualization and image generation was accomplished using Amira® (FEI, Hillsboro, Oreg.).

PD-L1 in hPD-L1 cells = target: T7, PD-L1 in hPD-L1 cells (Homo sapiens, UniProt Q9NZQ7); assay: In vitro binding of [64Cu]WL12 to hPD-L1 and CHO cells; format: cell-based
T7 construct: expressed in transfected cells; grown as tumours in NSG mice for the in vivo units
Procedure: as §1

in vivo = assay: in vivo; set-up: species or system mouse; settings: female, mouse, in vivo, iv, 40 uCi, total radioactivity, radioactivity uptake
Procedure: (§2) 1.4.10. Animal Models: Animal studies were performed according to the protocols approved by the JHU Animal Care and Use Committee (ACUC). Six-to-eight week old, female, non-obese diabetic severe-combined immunodeficient gamma (NSG) mice were obtained from the JHU Immune Compromised Animal Core. Mice were implanted subcutaneously in opposite sides of the upper flanks with 10×10^6 of CHO-PDL1 and CHO cells. […] 1.4.12. […] For the blocking study, mice were co-injected with 2 mg/kg (50 μg) of unmodified peptide with the radiotracer. The percentage of injected dose per gram of tissue (% ID/g) values were calculated based on signal decay correction and normalization to external [^64Cu] standards, which were measured in triplicate. Biodistribution data shown is mean±the standard error of the mean (SEM).

hPD-L1 tumors [7] = target: T6, hPD-L1 tumors; assay: in vivo; set-up: species or system mouse
Procedure: as §2

[8] = target: T8, PD-L1 in human NSCLC and TNBC xenografts (Homo sapiens, UniProt Q9NZQ7); settings: in vivo; cited from earlier work
T8 construct: host or cells: MDAMB231, SUM149 (TNBC), H2444, H1155 (NSCLC) xenografts in mice

[9] = mouse, in vivo, iv, 40 uCi, 1 h

T6 sequence (Q9NZQ7 19-290): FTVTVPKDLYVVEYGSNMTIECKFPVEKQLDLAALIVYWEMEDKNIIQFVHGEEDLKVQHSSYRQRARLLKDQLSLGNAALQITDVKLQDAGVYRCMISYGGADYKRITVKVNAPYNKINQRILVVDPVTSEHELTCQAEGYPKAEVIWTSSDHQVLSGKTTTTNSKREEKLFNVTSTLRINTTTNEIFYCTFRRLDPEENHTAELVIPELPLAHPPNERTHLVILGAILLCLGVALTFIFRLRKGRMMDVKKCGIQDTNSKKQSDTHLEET
T7 sequence (Q9NZQ7 19-290): as above
T8 sequence (Q9NZQ7 19-290): as above
T1 sequence (Q9NZQ7 19-290): as above
T3 sequence (Q9NZQ7 19-290): as above
T4 sequence (Q9NZQ7 19-290): as above
T5 sequence (Q9NZQ7 19-290): as above
T2 sequence (Q9NZQ7 19-290): as above

For “DurMab: FDA-approved PD-L1 mAb durvalumab”, the “less uptake of [64Cu]WL12 in tumors vs saline controls” value (PD-L1 in MDAMB231 tumors [1]) was “approximately 60%”, the “[64Cu]WL12 uptake in MDAMB231 xenografts” value (PD-L1 in MDAMB231 tumors [2]) was “significantly reduced” and the “[64Cu]WL12 binding to PD-L1-positive cells” value [3] was “inhibited”. The “decrease of [64Cu]WL12 binding to doxycycline-treated A549-iPDL1 cells” value ([4]; 60 nM mAb) was 65%.

In the case of CCCC[C@H]1C(=O)N(C)[C@@H](CCCC)C(=O)N[C@@H](CCCNC(=O)CCC(C(=O)O)N2CCN(CC(=O)O)CCN(CC(=O)O)CCN(CC(=O)O)CC2)C(=O)N[C@H](C(=O)NCC(N)=O)CSCC(=O)N[C@@H](Cc2ccc(O)cc2)C(=O)N(C)[C@@H](C)C(=O)N[C@@H](CC(N)=O)C(=O)N2CCC[C@H]2C(=O)N[C@@H](Cc2c[nH]cn2)C(=O)N[C@@H](CC(C)C)C(=O)N2C[C@H](O)C[C@H]2C(=O)N[C@@H](Cc2c[nH]c3ccccc23)C(=O)N[C@@H](CO)C(=O)N[C@@H](Cc2cn(C)c3ccccc23)C(=O)N1C (single isomer, unassigned) [[^64Cu]WL12, metal not drawn], the “accumulation in A549-iPDL1 tumors higher than in A549 control tumors” value [5] is reported as 65%, the “uptake of radioactivity in MDAMB231 cells compared to SUM149 cells” value (PD-L1 in MDAMB231 cells) is reported as “Two-fold higher” and the “time of increased uptake in hPD-L1 tumors, PET” value (hPD-L1 tumors [6]; 150 μCi i.v.) is reported as “as early as 10 min and retained through 24 h post-injection”. The “uptake in hPD-L1 tumor compared to CHO tumor, PET-CT” value (hPD-L1 tumors [6]; 24 h after injection) was “Increased uptake”, the “increase in radioactivity uptake, doxycycline treated vs. untreated cells” value ([4]; A549-iPDL1 cells) was 5.5 fold and the “correlation (r) of mean fluorescence intensity with uptake of radioactivity” value (PD-L1 in hPD-L1 cells; hPD-L1, MDAMB231, SUM149, CHO cells) was 0.9977. The “reduction in bound [64Cu]WL12” value (PD-L1 in hPD-L1 cells; hPD-L1 cells, 1 μM blocking dose of WL12) was over 95%, the “increase in bound radioactivity compared to negative control CHO cells” value (PD-L1 in hPD-L1 cells; hPD-L1 cells, 1 h incubation) was 43 fold and the “uptake of the incubated dose” value (PD-L1 in hPD-L1 cells; hPD-L1 cells, 1 h incubation) was over 50%. It also gave a tissue uptake at 1 h (in vivo; control CHO tumor) of 4 ± 0.6 %ID/g, a tissue uptake at 1 h (in vivo; hPD-L1 tumors) of 14.9 ± 0.8 %ID/g and a tissue uptake at 1 h (in vivo; kidneys) of 34.4 ± 3.1 %ID/g. The tissue uptake at 1 h (in vivo; liver) was 24.2 ± 2.5 %ID/g, the “reduction in % ID/g values in hPD-L1 tumors” value (hPD-L1 tumors [7]; co-injected excess WL12 (50 μg, 2 mg/kg), 2 h) was over 75% and the “change of uptake in control CHO tumors with blocking dose” value (hPD-L1 tumors [7]; co-injected excess WL12, 2 h) was “no significant difference”. For the same compound, the “affinity for mouse PD-L1” value (hPD-L1 tumors [7]; inferred from low uptake in spleen, thymus, brown fat) was “very low or no affinity”, the tumor-to-blood ratio (hPD-L1 tumors [7]; [9]) was 4.7±1.2 and the tumor-to-muscle ratio (hPD-L1 tumors [7]; [9]) was 25.6±1.9.

For “[^111In]AtzMab: 111In-radiolabeled atezolizumab”, the “uptake in PD-L1high H2444 vs PD-L1low H1155 NSCLC xenografts” value [8] is given as “Increased uptake” and the “uptake in PD-L1high MDAMB231 vs PD-L1low SUM149 TNBC xenografts” value [8] is given as “Increased uptake”.
